Source: patent US20260207704A1, “STAPLED PEPTIDES AND METHODS THEREOF” (priority 2022, published 2026)
*1 amine or outer side, *2 acyl side, *3 side chain or, on linkers, in order; H or OH if unused. Bridges are numbered along the chain shown (N, C = ends). Primed or numbered codes have the meaning given here. [ ]: non-standard residue; d: D form. PyrS2(6) = (S)-3-amino-1-((pent-4-en-1-yloxy)carbonyl)pyrrolidine-3-carboxylic acid, stapled with another olefin-containing amino acid residue through the olefin group, O=C(OCCCC=[*:3])N1CC[C@@](N[*:1])(C(=O)[*:2])C1; B5(4) = 2-amino-2-(pent-4-en-1-yl)hept-6-enoic acid, stapled through each of its two olefin groups with other olefin-containing amino acid residues, O=C(C(CCCC=[*:3])(CCCC=[*:4])N[*:1])[*:2]; PyrS2″ = (S)-3-amino-1-((pent-4-en-1-yloxy)carbonyl)pyrrolidine-3-carboxylic acid (olefin stapling residue), C=CCCCOC(=O)N1CC[C@@](N[*:1])(C(=O)[*:2])C1; PyrS2 = (S)-3-amino-1-((pent-4-en-1-yloxy)carbonyl)pyrrolidine-3-carboxylic acid, olefin staple residue, C=CCCCOC(=O)N1CC[C@@](N[*:1])(C(=O)[*:2])C1; TriAzLys = (S)-2-amino-5-(1H-1,2,3-triazol-1-yl)pentanoic acid, stapled through triazole 4-position, O=C([C@H](CCCn1cc([*:3])nn1)N[*:1])[*:2]; PyrS2(5) = (S)-3-amino-1-((pent-4-en-1-yloxy)carbonyl)pyrrolidine-3-carboxylic acid, C=CCCCOC(=O)N1CC[C@@](N[*:1])(C(=O)[*:2])C1; B5″ = 2-amino-2-(pent-4-en-1-yl)hept-6-enoic acid (bis-olefin stapling residue), C=CCCCC(CCCC=C)(N[*:1])C(=O)[*:2]; B5(5) = 2-amino-2-(pent-4-en-1-yl)hept-6-enoic acid (two olefin arms), C=CCCCC(CCCC=C)(N[*:1])C(=O)[*:2]; TriAzLys″ = azidolysine residue closed into triazole staple, O=C([C@H](CCCCn1cc([*:3])nn1)N[*:1])[*:2]; Phe(3-COOH) = N[C@@H](Cc1cccc(C(=O)O)c1)C(=O)O; 2F3MeF = Cc1cccc(C[C@H](N[*:1])C(=O)[*:2])c1F; Abu(4-yl) = O=C([C@H](CC[*:3])N[*:1])[*:2]; Bta = N[C@@H](Cc1csc2ccccc12)C(=O)O; αAllylPro = C=CC[C@@]1(C(=O)O)CCCN1; tBuAla = CC(C)(C)C[C@H](N)C(=O)O; 3Thi = N[C@@H](Cc1ccsc1)C(=O)O; TriAzLys(3) = not defined here; 2F3MeF(4) = Phe analogue; Orn = NCCC[C@H](N)C(=O)O; dGlnR = not defined here; AsnR = not defined here; GlnR = not defined here; sAla = not defined here; PL3 = not defined here; B5 = not defined here; Aib = CC(C)(N)C(=O)O

Assays:
beta-catenin (human) [1] = test: cell-based or functional assay
Chain of beta-catenin (human) (B6V8E6 146-665 limits assumed): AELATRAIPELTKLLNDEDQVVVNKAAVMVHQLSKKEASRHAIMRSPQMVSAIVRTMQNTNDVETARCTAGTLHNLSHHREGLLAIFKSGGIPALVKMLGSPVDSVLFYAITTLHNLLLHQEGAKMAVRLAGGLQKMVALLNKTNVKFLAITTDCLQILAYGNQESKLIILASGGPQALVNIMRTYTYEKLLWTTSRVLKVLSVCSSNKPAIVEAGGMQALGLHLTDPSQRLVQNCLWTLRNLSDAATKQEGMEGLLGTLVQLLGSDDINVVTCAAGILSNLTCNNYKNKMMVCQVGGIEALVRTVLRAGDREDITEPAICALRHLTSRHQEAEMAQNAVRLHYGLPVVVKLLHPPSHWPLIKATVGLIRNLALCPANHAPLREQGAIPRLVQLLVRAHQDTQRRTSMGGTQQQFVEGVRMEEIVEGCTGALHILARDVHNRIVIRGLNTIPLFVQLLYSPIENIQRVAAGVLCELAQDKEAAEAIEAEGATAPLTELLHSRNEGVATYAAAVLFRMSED

beta-catenin (human) [2] = test: fluorescence polarization

Row | NanoBRET Abs IC50 (beta-catenin (human) [1]) [nM] | IC50 (beta-catenin (human) [2]) [nM] | NanoBRET Abs IC50 (bin >3.0 uM) (beta-catenin (human) [1]) [nM] | Binder | other results
1 | < 1500 | < 50 |  | Ac-[αAllylPro]D[tBuAla][B5(4)]D[Phe(3-COOH)]AAFK[PyrS2(6)][3Thi][Bta][GlnR]-NH2 (bridge 10-14; not fully specified (bridges); printed as Ac-PL3-Asp-Npg-B5-Asp-3COOHF-Ala-Ala-Phe-Lys*3-PyrS2-3Thi-BztA-GlnR*3-NH2; reading uncertain) [I-32] | 
2 | > 10000 | < 50 |  | Ac-[αAllylPro]D[tBuAla][B5(5)]D[Phe(3-COOH)]AAF[Orn][PyrS2(5)][3Thi][Bta][AsnR]-NH2 (bridge 10-14; not fully specified (bridges); printed as Ac-PL3-Asp-Npg-B5-Asp-3COOHF-Ala-Ala-Phe-Orn*3-PyrS2-3Thi-BztA-AsnR*3-NH2; reading uncertain) [I-39] | 
3 |  | < 50 | < 10000 | Ac-[αAllylPro]D[tBuAla][B5(5)]D[Phe(3-COOH)]AAF[Orn][PyrS2(5)][3Thi][Bta][GlnR]-NH2 (bridge 10-14; not fully specified (bridges); printed as Ac-PL3-Asp-Npg-B5-Asp-3COOHF-Ala-Ala-Phe-Orn*3-PyrS2-3Thi-BztA-GlnR*3-NH2; reading uncertain) [I-37] | 
4 |  | < 50 |  | Ac-[αAllylPro]D[tBuAla][B5(5)]D[Phe(3-COOH)]AAFK[PyrS2(5)][3Thi][Bta][GlnR]A-NH2 (bridge 10-14; reading uncertain; also: PL3/B5/PyrS2 staple links not placed, printed as Ac-PL3-Asp-Npg-B5-Asp-3COOHF-Ala-Ala-Phe-Lys*3-PyrS2-3Thi-BztA-GlnR*3-Ala-NH2) [I-42] | NanoBRET Abs IC50 (bin >1.5 uM) (beta-catenin (human) [1]): < 3000 nM
5 |  | < 50 | < 10000 | Ac-[αAllylPro]D[tBuAla][B5(5)]D[Phe(3-COOH)]AAFK[PyrS2(5)][3Thi][Bta][AsnR]-NH2 (bridge 10-14; not fully specified (bridges); printed as Ac-PL3-Asp-Npg-B5-Asp-3COOHF-Ala-Ala-Phe-Lys*3-PyrS2-3Thi-BztA-AsnR*3-NH2; reading uncertain) [I-34] | 
6 |  | < 50 | < 10000 | Ac-[αAllylPro]D[tBuAla][B5(4)]D[Phe(3-COOH)]AAF[GlnR][PyrS2(6)][3Thi][Bta]K-NH2 (bridge 10-14; not fully specified (bridges); printed as Ac-PL3-Asp-Npg-B5-Asp-3COOHF-Ala-Ala-Phe-GlnR*3-PyrS2-3Thi-BztA-Lys*3-NH2; reading uncertain) [I-33] | 
7 |  | < 50 |  | Ac-[αAllylPro]D[tBuAla][B5]D[Phe(3-COOH)][Aib]AFK[PyrS2][3Thi][Bta][GlnR]A-NH2 (staple 1-4, 4-11; lactam 10-14; not fully specified; printed as Ac-PL3-Asp-Npg-B5-Asp-3COOHF-Aib-Ala-Phe-Lys*3-PyrS2-3Thi-BztA-GlnR*3-Ala-NH2; reading uncertain) [I-66] | AXIN2 expression IC50, COLO320DM cells (beta-catenin (human) [1]): 300 nM; AXIN2 expression IC50, DLD1 cells (beta-catenin (human) [1]): 1600 nM; SP5 expression IC50, DLD1 cells (beta-catenin (human) [1]): 1300 nM
8 |  | < 50 | < 10000 | Ac-[αAllylPro]D[tBuAla][B5(5)]D[Phe(3-COOH)]AAF[GlnR][PyrS2(5)][3Thi][Bta][Orn]-NH2 (bridge 10-14; not fully specified (bridges); printed as Ac-PL3-Asp-Npg-B5-Asp-3COOHF-Ala-Ala-Phe-GlnR*3-PyrS2-3Thi-BztA-Orn*3-NH2; reading uncertain) [I-38] | 

The next lines start with the binder.

Row | Binder | NanoBRET Abs IC50 (beta-catenin (human) [1]) [nM] | IC50 (beta-catenin (human) [2]) [nM] | NanoBRET Abs IC50 (bin >3.0 uM) (beta-catenin (human) [1]) [nM] | other results
9 | Ac-[αAllylPro]D[tBuAla][B5(4)]D[Phe(3-COOH)][TriAzLys(3)]AF[sAla][PyrS2(6)][3Thi][Bta]Q-NH2 (triazole 7-10; not fully specified (bridges); printed as Ac-PL3-Asp-Npg-B5-Asp-3COOHF-TriAzLys*3-Ala-Phe-sAla*3-PyrS2-3Thi-BztA-Gln-NH2; reading uncertain) [I-30] | > 10000 | < 50 |  | 
10 | Ac-[PL3]D[tBuAla][B5(4)]D[Phe(3-COOH)]AAF[TriAzLys″][PyrS2″][2F3MeF][Bta][sAla]-NH2 (triazole 10-14; not fully specified (bridges); printed as Ac-PL3-Asp-Npg-B5-Asp-3COOHF-Ala-Ala-Phe-TriAzLys*3-PyrS2-2F3MeF-BztA-sAla*3-NH2; reading uncertain) [I-21] |  | < 50 |  | NanoBRET Abs IC50 (bin >1.5 uM) (beta-catenin (human) [1]): < 3000 nM
11 | Ac-[αAllylPro]D[tBuAla][B5(4)]D[Phe(3-COOH)]AAF[sAla][PyrS2(6)][3Thi][Bta][TriAzLys(3)]-NH2 (triazole 10-14; not fully specified (bridges); printed as Ac-PL3-Asp-Npg-B5-Asp-3COOHF-Ala-Ala-Phe-sAla*3-PyrS2-3Thi-BztA-TriAzLys*3-NH2; reading uncertain) [I-24] |  | < 50 | < 10000 | 
12 | Ac-[αAllylPro]DL[B5″]D[Phe(3-COOH)]AAF[GlnR][PyrS2″][3Thi][Bta]K-NH2 (bridge 10-14; reading uncertain; also: PL3-B5 and PyrS2 links not placed, printed as Ac-PL3-Asp-Leu-B5-Asp-3COOHF-Ala-Ala-Phe-GlnR*3-PyrS2-3Thi-BztA-Lys*3-NH2) [I-16] |  | < 50 | < 10000 | 
13 | Ac-[αAllylPro]DL[B5(4)]D[Phe(3-COOH)]AAF[dGlnR][PyrS2(5)][3Thi][Bta]K-NH2 (bridge 10-14; not fully specified (bridges); printed as Ac-PL3-Asp-Leu-B5-Asp-3COOHF-Ala-Ala-Phe-DGlnR*3-PyrS2-3Thi-BztA-Lys*3-NH2; reading uncertain; also: DGlnR10 and Lys14 marked *3) [I-14] |  | < 50 | < 10000 | 
14 | Ac-[αAllylPro]D[tBuAla][B5″]DDAAF[TriAzLys][PyrS2″][3Thi][Bta][Abu(4-yl)]-NH2 (triazole 10-14; also: PL3-B5 and PyrS2 links not placed) [I-17] | > 10000 | < 50 |  | 
15 | Ac-[αAllylPro]D[tBuAla][B5(4)]D[Phe(3-COOH)]AAF[sAla][PyrS2(6)][2F3MeF(4)][Bta][TriAzLys(3)]-NH2 (triazole 10-14; not fully specified (bridges); printed as Ac-PL3-Asp-Npg-B5-Asp-3COOHF-Ala-Ala-Phe-sAla*3-PyrS2-2F3MeF-BztA-TriAzLys*3-NH2; reading uncertain) [I-25] |  | < 50 | < 10000 | 
16 | Ac-[αAllylPro]D[tBuAla][B5(4)]D[Phe(3-COOH)][TriAzLys(3)]AF[sAla][PyrS2(6)][2F3MeF(4)][Bta]Q-NH2 (triazole 7-10; not fully specified (bridges); printed as Ac-PL3-Asp-Npg-B5-Asp-3COOHF-TriAzLys*3-Ala-Phe-sAla*3-PyrS2-2F3MeF-BztA-Gln-NH2; reading uncertain) [I-31] | > 10000 | < 50 |  | 
17 | Ac-[PL3]D[tBuAla][B5(4)]DDAAF[sAla][PyrS2″][3Thi][Bta][TriAzLys″]-NH2 (triazole 10-14; not fully specified (bridges); printed as Ac-PL3-Asp-Npg-B5-Asp-Asp-Ala-Ala-Phe-sAla*3-PyrS2-3Thi-BztA-TriAzLys*3-NH2; reading uncertain) [I-23] |  | < 50 | < 10000 | 
18 | Ac-[αAllylPro]DL[B5″]D[Phe(3-COOH)]AAF[GlnR][PyrS2″][3Thi][Bta]K-NH2 (bridge 10-14; reading uncertain; also: PL3-B5 and PyrS2 links not placed, printed as Ac-PL3-Asp-Leu-B5-Asp-3COOHF-Ala-Ala-Phe-GlnR*3-PyrS2-3Thi-BztA-Lys*3-NH2) [I-15] |  | < 50 |  | NanoBRET Abs IC50 (bin >1.5 uM) (beta-catenin (human) [1]): < 3000 nM
19 | Ac-[αAllylPro]D[tBuAla][B5(4)]DD[TriAzLys(3)]AF[sAla][PyrS2(6)][3Thi][Bta]Q-NH2 (triazole 7-10; not fully specified (bridges); printed as Ac-PL3-Asp-Npg-B5-Asp-Asp-TriAzLys*3-Ala-Phe-sAla*3-PyrS2-3Thi-BztA-Gln-NH2; reading uncertain) [I-29] | > 10000 | < 50 |  | 
20 | Ac-[PL3]D[tBuAla][B5(4)]D[Phe(3-COOH)]AAF[TriAzLys″][PyrS2″][3Thi][Bta][sAla]-NH2 (triazole 10-14; not fully specified (bridges); printed as Ac-PL3-Asp-Npg-B5-Asp-3COOHF-Ala-Ala-Phe-TriAzLys*3-PyrS2-3Thi-BztA-sAla*3-NH2; reading uncertain) [I-19] |  | < 50 | < 10000 | 
